Square brackets hold non-standard residues; d marks the D form. Ends that are not written are not given here. dChg = N[C@@H](C(=O)O)C1CCCCC1; Chg = N[C@H](C(=O)O)C1CCCCC1; Orn = NCCC[C@H](N)C(=O)O; Dap = NC[C@H](N)C(=O)O; Sar = CNCC(=O)O
Key:
[1] = biological target: T1, vasopressin-1 receptor (Rattus norvegicus, UniProt P30560); test: 3H-vasopressin-1 antagonist binding inhibition, rat liver cell membranes; settings: Re-complexed
T1 construct: cell membranes prepared from rat liver; from tissue; host or cells: rat liver membranes
T1 sequence (P30560 whole entry): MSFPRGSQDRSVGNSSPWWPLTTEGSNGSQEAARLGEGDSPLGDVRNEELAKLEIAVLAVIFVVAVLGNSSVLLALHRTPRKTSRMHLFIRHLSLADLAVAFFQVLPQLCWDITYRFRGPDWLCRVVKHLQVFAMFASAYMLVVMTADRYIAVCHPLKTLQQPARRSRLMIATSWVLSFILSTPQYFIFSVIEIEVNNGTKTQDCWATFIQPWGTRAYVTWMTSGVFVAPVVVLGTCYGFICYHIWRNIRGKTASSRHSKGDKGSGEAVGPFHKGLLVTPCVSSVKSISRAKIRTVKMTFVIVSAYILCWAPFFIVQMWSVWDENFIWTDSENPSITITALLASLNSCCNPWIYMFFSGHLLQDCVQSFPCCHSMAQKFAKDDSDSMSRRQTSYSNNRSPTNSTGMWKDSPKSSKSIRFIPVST
Description: The screening of compounds for vasopressin-1 receptor was performed using cell membranes prepared from rat liver. The assay was essentially performed as described above for the oxytocin receptor assay. In this assay 2-4 nM ^3H-vasopressin-1 antagonist (obtained from Perkin Elemer-NEN Life Sciences) was used as the radiotracer and Arg^8-vasopressin (1 μM final concentration in the assay) was used to determine non-specific binding. The assay was performed in triplicates. Activity profile for the test compounds were generated by their ability to inhibit specific binding of the radiotracer to its receptor.

[2] = biological target: T2, oxytocin receptor (Rattus norvegicus, UniProt P70536); test: 3H-oxytocin binding inhibition, rat uterus cell membranes; settings: for % Inhibition at 1 μM Oxytocin Receptor (Table 30) / % Inhibition at 1 μM Oxytocin Receptor (Table 29): rat uterus membranes, Re-complexed; for activity at oxytocin receptor: within the Table 30 series
T2 construct: cell membranes prepared from rat uterus; from tissue; host or cells: rat uterus membranes
T2 sequence (P70536 1-388): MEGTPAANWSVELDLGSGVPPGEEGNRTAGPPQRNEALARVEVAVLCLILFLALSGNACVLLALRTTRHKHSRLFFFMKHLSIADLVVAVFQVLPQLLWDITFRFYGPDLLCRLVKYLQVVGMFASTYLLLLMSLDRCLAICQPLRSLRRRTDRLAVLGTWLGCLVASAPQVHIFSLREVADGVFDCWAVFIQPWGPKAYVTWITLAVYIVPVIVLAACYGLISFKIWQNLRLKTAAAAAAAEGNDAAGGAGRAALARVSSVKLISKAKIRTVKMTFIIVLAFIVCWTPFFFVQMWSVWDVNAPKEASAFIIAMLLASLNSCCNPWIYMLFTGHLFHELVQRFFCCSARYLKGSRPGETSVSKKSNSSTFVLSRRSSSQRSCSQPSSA
Description: The screening of metallopeptides for binding to oxytocin receptor was done using cell membranes prepared from rat uterus. […] The membrane preparations (10-50 μg/well) were incubated with […] ^3H-oxytocin in HEPES Buffer containing 0.2% bovine serum albumin along with a test compound (1 μM final assay concentration) for 2 hours at 4° C. Non-specific binding was determined by addition of 10^−6 M oxytocin instead of the test compound. After incubation, the membranes were filtered and washed three times with ice-cold PBS. The membranes were air-dried and punched directly into scintillation vials. After addition of the scintillation cocktail, the vials were capped and gently shaken for 12 hours to dissolve the radioactivity contained in the filters. The vials were then read for tritium counts in a scintillation counter. Specific binding was determined as the radioactivity in wells containing ^3H-oxytocin alone minus the radioactivity in wells containing 10^−6 M oxytocin. The assay was performed in triplicates. The activity profile for the test compounds were generated by their ability to inhibit specific binding of the radiotracer to its receptor.

[3] = biological target: T3, angiotensin-II receptor (Homo sapiens, UniProt P30556); test: 125I-Tyr4,Sar1,Ile8-Angiotensin II binding inhibition, human neuroblastoma (KAN-TS) cell membranes; settings: for % Inhibition at 1 μM (Angiotensin Receptor): KAN-TS cell membranes, Re-complexed
T3 construct: cell membranes obtained from human neuroblastoma cells (KAN-TS); endogenous in cells; host or cells: KAN-TS human neuroblastoma cells (membranes)
T3 sequence (P30556 1-359): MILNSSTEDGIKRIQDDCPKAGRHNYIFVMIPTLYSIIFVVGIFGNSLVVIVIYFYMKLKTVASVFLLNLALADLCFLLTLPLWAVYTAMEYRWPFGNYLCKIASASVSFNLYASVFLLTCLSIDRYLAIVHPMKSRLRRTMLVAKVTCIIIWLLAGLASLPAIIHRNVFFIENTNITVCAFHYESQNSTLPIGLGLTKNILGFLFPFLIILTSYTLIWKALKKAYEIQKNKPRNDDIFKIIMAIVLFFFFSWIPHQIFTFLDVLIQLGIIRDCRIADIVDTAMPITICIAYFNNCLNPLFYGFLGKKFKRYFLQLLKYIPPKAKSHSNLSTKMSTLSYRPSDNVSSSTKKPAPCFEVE
Description: The screening of compounds for binding to the angiotensin-II receptor was performed using cell membranes obtained from human neuroblastoma cells (KAN-TS). The assay was performed in triplicates, generally as described in Example 4 for oxytocin, except for measurement of receptor bound radioactivity. For angiotensin, a radioiodinated tracer ligand was used (instead of a tritiated ligand), which radioiodinated tracer facilitated direct measurement of bound radioactivity using a gamma counter. A final 1-3 nM concentration of ^125I-Tyr^4, Sar^1, Ile^8-Angiotensin II ligand (obtained from Perkin Elemer-NEN Life Sciences) was used as radiotracer and angiotensin-II (1 μM final assay concentration) was used to measure non-specific binding. After filtration of the incubation medium, followed by washings, drying the filters and punching the filters into test tubes, the filters were counted for radioactivity in a gamma counter. An activity profile for the test compounds was generated by ability to inhibit specific binding of the radiotracer to its receptor.

Row | Substance | % Inhibition at 1 μM Vasopressin-1 Receptor (Table 30) [1] | % Inhibition at 1 μM Oxytocin Receptor (Table 29) [2] | further results
1 | Ala-Tyr-Cys-Ile-Gln-Asn-Ala-Pro-Leu-Gly-NH2 (AYCIQNAPLG-NH2; not fully specified (bridges); printed as Ala-Tyr-Cys-Ile-Gln-Asn-Ala-Pro-Leu-Gly-NH2; also: oxorhenium(V) N3S1 metal chelate (Re=O)) [SEQ ID NO:158] | 1% |  | % Inhibition at 1 μM Oxytocin Receptor (Table 30) [2]: 6%
2 | Ala-Tyr-Ile-Cys-Gln-Asn-Ala-Pro-Leu-Gly-NH2 (AYICQNAPLG-NH2; not fully specified (bridges); printed as Ala-Tyr-Ile-Cys-Gln-Asn-Ala-Pro-Leu-Gly-NH2; also: oxorhenium(V) N3S1 metal chelate (Re=O)) [SEQ ID NO:157] | 0% |  | % Inhibition at 1 μM Oxytocin Receptor (Table 30) [2]: 0%
3 | Ala-Tyr-Ile-Gln-Asn-Ala-Ala-Cys-Leu-Gly-NH2 (AYIQNAACLG-NH2; not fully specified (bridges); printed as Ala-Tyr-Ile-Gln-Asn-Ala-Ala-Cys-Leu-Gly-NH2; also: oxorhenium(V) N3S1 metal chelate (Re=O)) [SEQ ID NO:152] | 1% |  | % Inhibition at 1 μM Oxytocin Receptor (Table 30) [2]: 0%
4 | Ala-Tyr-Ile-Gln-Asn-Ala-Ala-Leu-Cys-Gly-NH2 (AYIQNAALCG-NH2; not fully specified (bridges); printed as Ala-Tyr-Ile-Gln-Asn-Ala-Ala-Leu-Cys-Gly-NH2; also: oxorhenium(V) N3S1 metal chelate (Re=O)) [SEQ ID NO:151] | 0% |  | % Inhibition at 1 μM Oxytocin Receptor (Table 30) [2]: 0%
5 | Ala-Tyr-Ile-Gln-Asn-Ala-Ala-Leu-Gly-Cys-NH2 (AYIQNAALGC-NH2; not fully specified (bridges); printed as Ala-Tyr-Ile-Gln-Asn-Ala-Ala-Leu-Gly-Cys-NH2; also: oxorhenium(V) N3S1 metal chelate (Re=O)) [SEQ ID NO:150] | 0% |  | % Inhibition at 1 μM Oxytocin Receptor (Table 30) [2]: 0%
6 | Ala-Tyr-Ile-Gln-Asn-Ala-Cys-Ala-Leu-Gly-NH2 (AYIQNACALG-NH2; not fully specified (bridges); printed as Ala-Tyr-Ile-Gln-Asn-Ala-Cys-Ala-Leu-Gly-NH2; also: oxorhenium(V) N3S1 metal chelate (Re=O)) [SEQ ID NO:154] | 0% |  | activity at oxytocin receptor [2]: also active
7 | Ala-Tyr-Ile-Gln-Asn-Ala-Cys-Pro-Leu-Gly-NH2 (AYIQNACPLG-NH2; not fully specified (bridges); printed as Ala-Tyr-Ile-Gln-Asn-Ala-Cys-Pro-Leu-Gly-NH2; also: oxorhenium(V) N3S1 metal chelate (Re=O)) [SEQ ID NO:153] | 0% |  | % Inhibition at 1 μM Oxytocin Receptor (Table 30) [2]: 2%
8 | Ala-Tyr-Ile-Gln-Asn-Ala-Pro-Leu-Gly-Cys-NH2 (AYIQNAPLGC-NH2; not fully specified (bridges); printed as Ala-Tyr-Ile-Gln-Asn-Ala-Pro-Leu-Gly-Cys-NH2; also: oxorhenium(V) N3S1 metal chelate (Re=O)) [SEQ ID NO:149] | 0% |  | % Inhibition at 1 μM Oxytocin Receptor (Table 30) [2]: 6%
9 | Ala-Tyr-Ile-Gln-Asn-Cys-Ala-Pro-Leu-Gly-NH2 (AYIQNCAPLG-NH2; not fully specified (bridges); printed as Ala-Tyr-Ile-Gln-Asn-Cys-Ala-Pro-Leu-Gly-NH2; also: oxorhenium(V) N3S1 metal chelate (Re=O)) [SEQ ID NO:155] | 0% |  | activity at oxytocin receptor [2]: maximal activity
10 | Ala-Tyr-Ile-Gln-Cys-Asn-Ala-Pro-Leu-Gly-NH2 (AYIQCNAPLG-NH2; not fully specified (bridges); printed as Ala-Tyr-Ile-Gln-Cys-Asn-Ala-Pro-Leu-Gly-NH2; also: oxorhenium(V) N3S1 metal chelate (Re=O)) [SEQ ID NO:156] | 0% |  | activity at oxytocin receptor [2]: also active
11 | Caca-D-Trp-Ile-Cys-Thr-Dap-Ala-Pro-Orn-NH2 |  | 0% | 
12 | Caca-D-Trp-Ile-Thr-Cys-Dap-Ala-Pro-Orn-NH2 |  | 0% | % Inhibition at 1 μM Vasopressin-1 Receptor (Table 29) [1]: 0%
13 | Caca-D-Trp-Ile-Thr-Dap-Ala-Ala-Cys-Orn-NH2 |  | 0% | % Inhibition at 1 μM Vasopressin-1 Receptor (Table 29) [1]: 0%
14 | Caca-D-Trp-Ile-Thr-Dap-Ala-Ala-Orn-Cys-NH2 |  | 0% | 
15 | Caca-D-Trp-Ile-Thr-Dap-Ala-Cys-Ala-Orn-NH2 |  | 0% | % Inhibition at 1 μM Vasopressin-1 Receptor (Table 29) [1]: 0%
16 | Caca-D-Trp-Ile-Thr-Dap-Ala-Cys-Pro-Orn-NH2 |  | 0% | % Inhibition at 1 μM Vasopressin-1 Receptor (Table 29) [1]: 0%
17 | Caca-D-Trp-Ile-Thr-Dap-Cys-Ala-Pro-Orn-NH2 |  | 9% | 
18 | Pmp-D-Trp-Cys-Ile-Thr-Dap-Ala-Pro-Orn-NH2 |  | 0% | 
19 | Sar-Arg-Cys-Val-Tyr-Ile-His-Pro-Thr ([Sar]RCVYIHPT; not fully specified (bridges); printed as Sar-Arg-Cys-Val-Tyr-Ile-His-Pro-Thr; also: oxorhenium(V) N3S1 metal chelate (Re=O)) [SEQ ID NO:165] |  |  | % Inhibition at 1 μM (Angiotensin Receptor) [3]: 1%
20 | Sar-Arg-Val-Cys-Tyr-Ile-His-Pro-Thr ([Sar]RVCYIHPT; not fully specified (bridges); printed as Sar-Arg-Val-Cys-Tyr-Ile-His-Pro-Thr; also: oxorhenium(V) N3S1 metal chelate (Re=O)) [SEQ ID NO:164] |  |  | % Inhibition at 1 μM (Angiotensin Receptor) [3]: 1%
21 | Sar-Arg-Val-Tyr-Ile-His-Cys-Gly-Thr ([Sar]RVYIHCGT; not fully specified (bridges); printed as Sar-Arg-Val-Tyr-Ile-His-Cys-Gly-Thr; also: oxorhenium(V) N3S1 metal chelate (Re=O)) [SEQ ID NO:166] |  |  | percent inhibition at angiotensin receptor compared ([3]; Gly for Pro substitution): significantly less than in SEQ ID NO:161
22 | Sar-Arg-Val-Tyr-Ile-His-Gly-Cys-Thr ([Sar]RVYIHGCT; not fully specified (bridges); printed as Sar-Arg-Val-Tyr-Ile-His-Gly-Cys-Thr; also: oxorhenium(V) N3S1 metal chelate (Re=O)) [SEQ ID NO:160] |  |  | % Inhibition at 1 μM (Angiotensin Receptor) [3]: 5%
23 | [Chg][dW]CIT[Dap]AP[Orn]-NH2 |  | 0% | % Inhibition at 1 μM Vasopressin-1 Receptor (Table 29) [1]: 0%
24 | [dChg][dW]CIT[Dap]AP[Orn]-NH2 |  | 0% | % Inhibition at 1 μM Vasopressin-1 Receptor (Table 29) [1]: 8%

From patent US20050014193A1, “Identification of target-specific folding sites in peptides and proteins” (priority 2003, published 2005)
